# Assay results from patent US20260191954A1, “COMPOSITIONS AND METHODS FOR NEOADJUVANT TREATMENT IN CANCER” (INNATE PHARMA, priority 2022, published 2026).
# Columns and labels:
# [1] = system: OAW42 (CD39+) cells; test: eATP release in OAW42 (CD39+) cells with IPH5201 and docetaxel; assay type: cell-based; settings: IPH5201 10 or 50 μg/mL + docetaxel dose range, 30 h, FIG. 3B
# Description: OAW42 (CD39+) cells were incubated with 10 or 50 μg/mL of IPH5201 and treated with a dose range of docetaxel. The measure of eATP release was performed 30 h after docetaxel treatment. eATP was measured in the cell culture supernatant with a luminescent-based assay (CellTiter-Glo®) and expressed in Luminescence Arbitrary Unit (AU). Means+/−SD.
# [2] = Phase 1 study of IPH5201 +/- durvalumab in advanced solid tumours: safety; assay type: in vivo
# Description: A first-in-human, multicentre, non-randomised, open-label, phase 1 study was conducted in order to assess the safety, efficacy, pharmacokinetics (PK) and pharmacodynamics (PD) of IPH5201±durvalumab (Imfinzi™) in patients with advanced solid tumours. The study consisted of two consecutive dose-escalation parts: • Part 1: Ascending doses of IPH5201 (100, 300, 1000 and 3000 mg) every 3 weeks (Q3W). • Part 2: Ascending doses of IPH5201 (300, 1000 and 3000 mg) and 1500 mg durvalumab Q3W.
# PD cohorts enrolled patients with advanced squamous cell lung carcinoma or advanced pancreatic ductal adenocarcinoma in the top two dose levels of Parts 1 and 2. Primary endpoints were safety and tolerability. Key secondary endpoints included preliminary antitumour activity measured by objective response and disease control per RECIST v1.1, PK and immunogenicity. Exploratory endpoints included efficacy measured by duration of response and progression-free survival (PFS) per RECIST v1.1, overall survival and assessment of biomarkers.
# Key inclusion criteria were: • Adults aged ≥18 years. • Histologically or cytologically confirmed advanced solid tumours. • At least one measurable lesion per RECIST v1.1. • Refractoriness to standard therapy or disease for which no standard therapy exists. • Eastern Cooperative Oncology Group Performance Status of 0 or 1. • Archival or fresh tumour sample. • Key exclusion criteria were: • Previous treatment with any agents targeting CD73, CD39, or adenosine receptors. • Treatment with any conventional or investigational anticancer therapy within 21 days of the first planned dose. • Active or prior autoimmune or inflammatory disorders within the past 5 years. • Cardiac and vascular criteria including presence of acute coronary syndrome or thromboembolic events within 6 months prior to enrolment, congestive heart failure, serious cardiac arrhythmia requiring medication, or uncontrolled hypertension. • Untreated metastases to the central nervous system.
# Overall, 57 patients received treatment (IPH5201, n=38; IPH5201+durvalumab, n=19). […] Treatment-emergent adverse events (TEAEs) occurred in 96.5% of patients; 40.4% had grade ≥3 TEAEs. […] Treatment-related adverse events (TRAEs) occurred in 66.7% of patients (37/57 (64.9%) related to IPH5201; 11/19 (57.9%) related to durvalumab). […] The most common TRAEs were infusion-related reactions (21.1%), fatigue (17.5%), nausea, arthralgia, tumour pain and pruritus (8.8% each). […] Maximum tolerated dose (MTD) was not reached.
molecule,measurement,setting,value
IPH5201: humanized anti-CD39 antibody having the respective heavy and light chain amino acid sequences of SEQ ID NOS: 10 and 11 (antibody) heavy: QVQLVQSGAEVKKPGASVKVSCKASGYTFTDYNMHWVRQAPGQRLEWIGYIVPLNGGSTFNQKFKGRATITVDTSARTAYMELSSLRSEDTAVYYCARGGTRFAYWGQGTLVTVSSASTKGPSVFPLAPSSKSTSGGTAALGCLVKDYFPEPVTVSWNSGALTSGVHTFPAVLQSSGLYSLSSVVTVPSSSLGTQTYICNVNHKPSNTKVDKRVEPKSCDKTHTCPPCPAPEAEGAPSVFLFPPKPKDTLMISRTPEVTCVVVDVSHEDPEVKFNWYVDGVEVHNAKTKPREEQYNSTYRVVSVLTVLHQDWLNGKEYKCKVSNKALPSSIEKTISKAKGQPREPQVYTLPPSREEMTKNQVSLTCLVKGFYPSDIAVEWESNGQPENNYKTTPPVLDSDGSFFLYSKLTVDKSRWQQGNVFSCSVMHEALHNHYTQKSLSLSPGK light: DIVMTQSPDSLAVSLGERATINCRASESVDNFGVSFMYWFQQKPGQPPKLLIYGASNQGSGVPDRFSGSGSGTDFTLTISSLQAEDVAVYYCQQTKEVPYTFGGGTKVEIKRTVAAPSVFIFPPSDEQLKSGTASVVCLLNNFYPREAKVQWKVDNALQSGNSQESVTEQDSKDSTYSLSSTLTLSKADYEKHKVYACEVTHQGLSSPVTKSFNRGEC,eATP accumulation,[1],eATP accumulated significantly
same,deaths due to treatment,[2]; all 57 treated patients,no deaths due to treatment
same,Maximum tolerated dose (MTD),[2]; doses up to 3000 mg Q3W,not reached
same,DLTs during dose escalation,[2]; in vivo,No DLTs were observed
same,TEAE: anaemia,[2]; in vivo,19.3%
same,TEAE: decreased appetite,[2]; in vivo,26.3%
same,TEAE: fatigue,[2]; in vivo,28.1%
same,TEAE: infusion-related reactions,[2]; in vivo,21.1%
same,TEAE: tumour pain,[2]; in vivo,19.3%
same,TRAE: arthralgia,[2]; in vivo,8.8%
same,TRAE: fatigue,[2]; in vivo,17.5%
same,TRAE: infusion-related reactions,[2]; in vivo,21.1%
same,TRAE: nausea,[2]; in vivo,8.8%
same,TRAE: pruritus,[2]; in vivo,8.8%
same,TRAE: tumour pain,[2]; in vivo,8.8%
same,correlation of dose with incidence of TEAEs of at least grade 3,[2]; in vivo,No significant correlation
same,grade 4 TRAEs,[2]; in vivo,no grade 4 TRAEs
same,patients with TRAEs related to IPH5201,[2]; in vivo,64.9%
same,"patients with TRAEs related to IPH5201, count",[2]; in vivo,37/57
same,patients with grade 3 TRAEs,[2]; in vivo,10.5%
same,patients with grade ≥3 TEAEs,[2]; in vivo,40.4%
same,patients with treatment-emergent adverse events (TEAEs),[2]; in vivo,96.5%
same,patients with treatment-related adverse events (TRAEs),[2]; in vivo,66.7%
